B1: AB-010699 (mIgG2a format) (antibody, V domains shown)
VH: QVQLQQWGAGLLKPSETLSLTCAVYGGSFSGYYWSWIRQPPGKGLEWIGEINHRGSINYNNYNPSLKSRVTISVDTSKNQFSLKLSSVTAADTAVYYCAKPLRPHCINGVCYSGDAFDIWGQGTMVTVAS
VL: SYVLTQPPSVSVAPGQTARITCGGNNIGYKNVHWYQQKPGQAPVLVVYDDSDRPSGIPERFSGSNSGNTATLTISRVEAGDEADYYCQVWDHSSDHVVFGGGTKLTVL
notes: Tested with mouse IgG2a constant regions (mIgG2a format)
B2: AB-009812 (antibody, mouse IgG2a, V domains shown)
VH: B1 VH with G31D, I51V, R54S, T76P, S86T, I107T
VL: B1 VL with Y29S, R60Q, H92S, V97L
B3: AB-009813 (antibody, mouse IgG2a, V domains shown)
VH: B1 VH with G31D, I51V, R54A, T76P, S86T, I107T
VL: B1 VL with Y29S, R60Q, H92S, V97L
B4: AB-009816 (antibody, mouse IgG2a, V domains shown)
VH: B1 VH with G31D, I51V, T76A, S86T, I107T
VL: B1 VL with Y29S, R60Q, H92S, V97L
B5: AB-009815 (antibody, mouse IgG2a, V domains shown)
VH: B1 VH with G31D, I51V, S86T, I107T
VL: B1 VL with Y29S, R60Q, H92S, V97L

Residue numbers refer to the chain shown, from its start.

T2 sequence (P29317 24-976 limits assumed): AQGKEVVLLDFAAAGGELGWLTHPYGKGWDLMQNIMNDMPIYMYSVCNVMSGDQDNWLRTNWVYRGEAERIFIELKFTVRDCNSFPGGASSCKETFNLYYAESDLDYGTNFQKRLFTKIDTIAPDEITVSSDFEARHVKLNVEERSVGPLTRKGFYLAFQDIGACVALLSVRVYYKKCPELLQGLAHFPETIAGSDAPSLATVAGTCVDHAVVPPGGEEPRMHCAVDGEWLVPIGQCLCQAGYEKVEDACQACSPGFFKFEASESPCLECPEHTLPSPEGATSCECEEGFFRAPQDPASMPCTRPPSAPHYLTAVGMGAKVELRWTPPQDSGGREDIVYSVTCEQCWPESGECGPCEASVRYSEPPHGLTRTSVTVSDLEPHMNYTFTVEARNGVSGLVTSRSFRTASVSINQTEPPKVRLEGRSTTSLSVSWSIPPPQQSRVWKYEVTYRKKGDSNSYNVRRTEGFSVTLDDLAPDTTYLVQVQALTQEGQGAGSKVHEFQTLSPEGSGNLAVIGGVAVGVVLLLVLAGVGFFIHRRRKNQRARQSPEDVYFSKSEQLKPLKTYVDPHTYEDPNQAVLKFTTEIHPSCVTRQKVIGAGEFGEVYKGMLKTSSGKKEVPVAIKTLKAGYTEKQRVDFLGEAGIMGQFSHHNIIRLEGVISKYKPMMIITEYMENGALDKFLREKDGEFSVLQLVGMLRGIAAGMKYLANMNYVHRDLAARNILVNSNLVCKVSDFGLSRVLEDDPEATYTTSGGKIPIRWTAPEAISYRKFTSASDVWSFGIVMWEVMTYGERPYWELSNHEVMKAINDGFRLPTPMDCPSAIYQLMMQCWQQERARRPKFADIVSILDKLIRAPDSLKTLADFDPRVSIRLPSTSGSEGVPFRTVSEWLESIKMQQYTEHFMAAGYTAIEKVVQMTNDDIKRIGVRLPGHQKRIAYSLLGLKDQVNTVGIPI

In one assay the target is T1, C-terminally His-tagged hEphA2-FN2 (Thr437-Asn534+His tag) (human, UniProt P29317 437-534).
T1 construct: SPR analyte; also called FN2 domain of hEphA2
T1 sequence (P29317 437-534 limits assumed): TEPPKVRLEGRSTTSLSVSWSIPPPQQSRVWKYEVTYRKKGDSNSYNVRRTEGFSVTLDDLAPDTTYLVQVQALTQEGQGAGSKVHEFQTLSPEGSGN
Put plainly: SPR Biacore T200, 25 C, mIgG2a captured by anti-mouse Fc, FN2-His as analyte, steady-state fit, monovalent. How it is done:
Binding of antibodies to the FN2 domain of hEphA2 was measured using the Biacore® T200 SPR system at 25° C. using HBS-EP+ buffer (0.01 M HEPES pH 7.4, 0.15 M NaCl, 3 mM EDTA, 0.005% v/v Surfactant P20). Antibodies in mIgG2a format were captured at levels between 475-715 RU via an anti-mouse Fc antibody immobilized to a CM5 chip. Binding was assessed using a titration of C-terminally His-tagged hEphA2-FN2 (Thr437-Asn534+His tag) associated for 30 s or 75 s at 30 uL/min. Data was double-reference subtracted using both a surface without captured antibody and from injections of HBS-EP+ buffer. The equilibrium response was measured at 4 seconds before the end of association with a window of 5 seconds and fit using the Biacore T200 Evaluation Software 3.1 with the Steady State Affinity Model.
As a reminder, the Kd is the constant that tells how readily two partners part at equilibrium. Read a low Kd as a tighter complex. B1 registered a dissociation constant Kd of 18.9 nM.

The next assay concerns the target T2, Human EphA2 (ephrin receptor A2) (human, UniProt P29317 24-976).
T2 construct: Endogenous protein in frozen human tumor tissue and tumor adjacent tissue, not a recombinant construct
Put plainly: IHC/IF score on frozen human tumor tissue, ANC.
Molecule B2 displayed an IHC score of 2.

B3 had an IHC score of 2.

The molecule B4 displayed an IHC score of 2.

B5 showed an IHC score of 2.

In the next assay the target is T2, Human EphA2 (ephrin receptor A2). Put plainly: IHC/IF score on frozen human tumor tissue, NSCLC-Adeno.
Turning to B2, the IHC score came out at 2.

B3 returned an IHC score of 2.

The molecule B4 had an IHC score of 2.

B5 displayed an IHC score of 2.

A further assay has the same target. Put plainly: IHC/IF score on frozen human tumor tissue, UCEC-papillary.
B2 displayed an IHC score of 2.

B3: the IHC score amounted to 2.

For the molecule B4, the IHC score is 2.

Regarding B5, the IHC score came out at 2.

The target is the same in another assay. Put plainly: IHC/IF score on frozen human tumor tissue, MELA.
In turn, B2 yielded an IHC score of 2.

Turning to B3, the IHC score was determined as 2.

B4 showed an IHC score of 2.

B5: the IHC score stood at 2.

The next assay has the same target. Put plainly: IHC/IF score on frozen human tumor tissue, GAC.
Consider B2, for which the IHC score was determined as 2.

B3 had an IHC score of 2.

On to B4, for which the IHC score turned out to be 2.

B5 came in with an IHC score of 2.

Another assay has the same target. Put plainly: IHC/IF score on frozen human tumor tissue, RCC-papillary.
On to B2, for which the IHC score worked out at 1.

Molecule B3 showed an IHC score of 1.

As to B4, the IHC score came to 1.

B5 registered an IHC score of 1.

For another assay the target is unchanged. Put plainly: IHC/IF score on frozen human tumor tissue, STS.
For the molecule B2, the IHC score was determined as 2.

On to B3, for which the IHC score was 2.

As for B4, the IHC score worked out at 2.

B5 registered an IHC score of 2.

The target is the same in another assay. Put plainly: IHC/IF score on frozen human tumor tissue, ESC.
As to B2, the IHC score turned out to be 2.

Turning to B3, the IHC score is 2.

Consider B4, for which the IHC score amounted to 2.

Molecule B5 displayed an IHC score of 2.

The next assay has the same target. Put plainly: IHC/IF score on frozen human tumor tissue, TNBC.
Consider B2, for which the IHC score amounted to 1.

Take B3: the IHC score was determined as 1.

Take B4: the IHC score was 1.

In turn, B5 gave an IHC score of 1.

The next assay has the same target. Put plainly: IHC/IF score on frozen human tumor tissue, UCEC-endometriod.
As for B2, the IHC score was 1.

Molecule B3 showed an IHC score of 1.

B4 had an IHC score of 1.

As for B5, the IHC score stood at 1.

The target is the same in another assay. Put plainly: IHC/IF score on frozen human tumor tissue, CRC.
Regarding B2, the IHC score came to 1.

Molecule B3 registered an IHC score of 1.

B4 displayed an IHC score of 1.

With B5, the IHC score is 1.

Another assay shares this target. Put plainly: IHC/IF score on frozen human tumor tissue, UCEC-clear cell.
Take B2: the IHC score stood at 1.

As for B3, the IHC score was 2.

For the molecule B4, the IHC score was determined as 2.

Molecule B5 registered an IHC score of 2.

The next assay concerns the target T1, C-terminally His-tagged hEphA2-FN2 …. Put plainly: SPR Biacore T200, 25 C, mIgG2a as ligand, FN2-His as analyte, 1:1 Langmuir. How it is done:
Binding of EphA2 antibodies to the FN2 domain of hEphA2 was measured using the Biacore® T200 SPR system. Biacore® assays were conducted at 25° C. using HBS-EP+ buffer (0.01 M HEPES pH 7.4, 0.15 M NaCl, 3 mM EDTA, 0.005% v/v Surfactant P20) using the FN2 domain as the analyte with the antibodies in mIgG2a format as the immobilized ligand. Data was analyzed using 1:1 Langmuir binding model and steady-state model in Biacore Evaluation software.
C-terminally His-tagged human EphA2 FN2 domain (Thr437-Asn534+His tag) was used as the analyte. The analyte was associated for 120 seconds and dissociated for 100 seconds or 300 seconds at 30 uL/min.
For orientation: SPR reads the build-up and loss of mass on a sensor chip optically.
For orientation: koff means a measure of how fast the partners let go of each other. By kon is commonly meant the second-order rate constant of association. Molecule B1 returned a Kd of 19 nM, a koff of 0.075 s⁻¹ and a kon of 3.9e+06 M⁻¹ s⁻¹.

For the next assay, the target named is T2, Human EphA2 (ephrin receptor A2). Put plainly: IHC/IF score on frozen human tumor tissue, ER+ BRC.
As for B2, the IHC score is 1.

B3 had an IHC score of 1.

Turning to B4, the IHC score turned out to be 1.

B5 returned an IHC score of 1.

For the next assay the target is unchanged. Put plainly: IHC/IF score on frozen human tumor tissue, URO.
As to B2, the IHC score came to 1.

In the case of B3, the IHC score was determined as 1.

On to B4, for which the IHC score was determined as 1.

B5 returned an IHC score of 1.

Another assay shares this target. Put plainly: IHC/IF score on frozen human tumor tissue, Her2+ BRC.
Take B2: the IHC score stood at 2.

Regarding B3, the IHC score turned out to be 1.

With B4, the IHC score was 2.

In the case of B5, the IHC score stood at 2.

A further assay has the same target. Put plainly: IHC/IF score on frozen human tumor tissue, PROC.
B2 came in with an IHC score of 1.

B3 had an IHC score of 1.

Molecule B4 displayed an IHC score of 1.

Take B5: the IHC score worked out at 1.

The target is the same in another assay. Put plainly: IHC/IF score on frozen human tumor tissue, PANC.
In the case of B2, the IHC score was 1.

Turning to B3, the IHC score came to 1.

Molecule B4 showed an IHC score of 1.

Turning to B5, the IHC score turned out to be 1.

For the next assay the target is unchanged. Put plainly: IHC/IF score on frozen human tumor tissue, OVA.
For B2, the IHC score was 2.

B3 yielded an IHC score of 2.

In turn, B4 yielded an IHC score of 2.

As for B5, the IHC score amounted to 2.

The target is the same in another assay. Put plainly: IHC/IF score on frozen human tumor tissue, NSCLC-SQ.
On to B2, for which the IHC score is 1.

The molecule B3 registered an IHC score of 1.

Turning to B4, the IHC score is 1.

Molecule B5 showed an IHC score of 1.

The target is the same in another assay. Put plainly: IHC/IF score on frozen human tumor tissue, RCC-clear cell.
Consider B2, for which the IHC score came out at 1.

B3 displayed an IHC score of 1.

B4: the IHC score worked out at 1.

Turning to B5, the IHC score was 1.

Another assay has the same target. Put plainly: IHC/IF score on frozen human tumor tissue, HNC.
On to B2, for which the IHC score came to 2.

Take B3: the IHC score is 2.

Molecule B4 had an IHC score of 2.

In turn, B5 gave an IHC score of 2.

For the origin of these results see patent publication US20250051464A1 (IMMUNOME, published 2025).
